Starred links: 1 amine or outer side, 2 acyl side, 3 side chain; linkers in the order of their positions; H or OH if unused. Positions of bridges follow the written chain, without caps; N, C: chain ends. Non-standard residues stand in square brackets, D forms with d. Primed or numbered codes have the meaning given here. *: point of attachment. PyrS2″ = (S)-3-amino-1-((pent-4-en-1-yloxy)carbonyl)pyrrolidine-3-carboxylic acid (stapling residue), C=CCCCOC(=O)N1CC[C@@](N[*:1])(C(=O)[*:2])C1; (bismethoxyethylamine)GlnR = [bismethoxyethylamine]GlnR, N5,N5-bis(2-methoxyethyl)-L-glutamine, COCCN(CCOC)C(=O)CC[C@H](N[*:1])C(=O)[*:2]; B5(4) = 2,2-bis(4-pentenyl)glycine = 2-amino-2-(pent-4-en-1-yl)hept-6-enoic acid (stitching residue), C=CCCCC(CCCC=C)(N[*:1])C(=O)[*:2]; (AcPpz)GlnR = [AcPpz]GlnR, (S)-5-(4-acetylpiperazin-1-yl)-2-amino-5-oxopentanoic acid, CC(=O)N1CCN(C(=O)CC[C@H](N[*:1])C(=O)[*:2])CC1; TfeGA = (S)-2-amino-3-((carboxymethyl)(2,2,2-trifluoroethyl)amino)propanoic acid, O=C([C@H](CN(CC(=O)[*:3])CC(F)(F)F)N[*:1])[*:2]; PyrS2 = (S)-3-amino-1-((pent-4-en-1-yloxy)carbonyl)pyrrolidine-3-carboxylic acid, C=CCCCOC(=O)N1CC[C@@](N[*:1])(C(=O)[*:2])C1; PyrS1 = (S)-3-amino-1-((but-3-en-1-yloxy)carbonyl)pyrrolidine-3-carboxylic acid, C=CCCOC(=O)N1CC[C@@](N[*:1])(C(=O)[*:2])C1; PyrS = (S)-1-((allyloxy)carbonyl)-3-aminopyrrolidine-3-carboxylic acid, C=CCOC(=O)N1CC[C@@](N[*:1])(C(=O)[*:2])C1; (Morph)GlnR″ = [Morph]GlnR, (S)-2-amino-5-morpholino-5-oxopentanoic acid, O=C(CC[C@H](N[*:1])C(=O)[*:2])N1CCOCC1; MorphAsn = (S)-2-amino-4-morpholino-4-oxobutanoic acid, O=C(C[C@H](N[*:1])C(=O)[*:2])N1CCOCC1; B6 = 2-amino-2-(hex-5-en-1-yl)oct-7-enoic acid, C=CCCCCC(CCCCC=C)(N[*:1])C(=O)[*:2]; Me2Asn = listed as N4-methyl-L-asparagine, CNC(=O)C[C@H](N[*:1])C(=O)[*:2]; 5hexenyl = N-terminal hex-5-enoic acid (acyl cap), C=CCCCC(=O)*; Phe(3-COOH) = N[C@@H](Cc1cccc(C(=O)O)c1)C(=O)O; Phe(2-CF3) = N[C@@H](Cc1ccccc1C(F)(F)F)C(=O)O; Bta = N[C@@H](Cc1csc2ccccc12)C(=O)O; αAllylPro = C=CC[C@@]1(C(=O)O)CCCN1; Morpholinoacetyl = O=C(CN1CCOCC1)*; tBuAla = CC(C)(C)C[C@H](N)C(=O)O; 3Thi = N[C@@H](Cc1ccsc1)C(=O)O; Cha = N[C@@H](CC1CCCCC1)C(=O)O; AllylGly = C=CC[C@H](N)C(=O)O; BnBoroleK = not defined here; PyrS2(4) = not defined here; TfeGA″ = not defined here; 34ClF = not defined here; Nle = CCCC[C@H](N)C(=O)O; Aib = CC(C)(N)C(=O)O
T1: B-cat-Halo (beta-catenin HaloTag construct expressed in HEK293 cells) (UniProt P35222 1-781)
T1 sequence (looked up): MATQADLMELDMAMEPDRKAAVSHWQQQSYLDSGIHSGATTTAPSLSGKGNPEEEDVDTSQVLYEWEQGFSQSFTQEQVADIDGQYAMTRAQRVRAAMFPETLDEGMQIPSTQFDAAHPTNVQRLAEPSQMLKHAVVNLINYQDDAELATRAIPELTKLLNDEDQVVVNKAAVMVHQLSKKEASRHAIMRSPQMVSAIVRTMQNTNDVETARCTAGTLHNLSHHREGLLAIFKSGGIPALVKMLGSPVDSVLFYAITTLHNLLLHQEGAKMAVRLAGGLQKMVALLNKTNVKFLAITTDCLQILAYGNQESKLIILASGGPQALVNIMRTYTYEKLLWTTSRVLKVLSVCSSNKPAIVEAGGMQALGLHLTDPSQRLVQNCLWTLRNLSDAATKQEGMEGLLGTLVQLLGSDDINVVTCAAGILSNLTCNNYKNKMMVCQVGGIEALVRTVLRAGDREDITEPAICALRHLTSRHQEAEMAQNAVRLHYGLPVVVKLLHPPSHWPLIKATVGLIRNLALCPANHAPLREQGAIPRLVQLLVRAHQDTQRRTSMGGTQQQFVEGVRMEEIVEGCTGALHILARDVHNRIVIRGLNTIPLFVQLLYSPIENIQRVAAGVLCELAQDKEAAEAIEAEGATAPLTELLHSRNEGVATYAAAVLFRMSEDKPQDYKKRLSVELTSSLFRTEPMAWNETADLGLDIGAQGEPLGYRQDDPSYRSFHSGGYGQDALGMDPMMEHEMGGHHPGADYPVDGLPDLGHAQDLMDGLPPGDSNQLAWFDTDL

T2: B-cat-Halo (beta-catenin HaloTag fusion expressed in HEK293 cells) (UniProt P35222 1-781)
T2 sequence (looked up): T1 sequence (looked up)

T3: B-cat-Halo (beta-catenin HaloTag construct expressed in HEK293 cells) (UniProt P35222 1-781)
T3 sequence (looked up): T1 sequence (looked up)

B1: I-2523 (peptide)
peptide: Ac-[αAllylPro]N[Cha][B5(4)]DQKAFL[PyrS2]F[Bta][MorphAsn]-NH2
modifications: staple 1-4, 4-11; not fully specified (residue 7); printed as Ac-PL3-Asn-Cha-B5-Asp-Gln-[Phc]Lys-Ala-Phe-Leu-PyrS2-Phe-BztA-MorphAsn-NH2
B2: I-2529 (peptide)
peptide: 5hexenyl-[αAllylPro]D[AllylGly][B5(4)]D[Phe(3-COOH)]AAFL[PyrS2″][Phe(2-CF3)][Bta]Q-NH2
modifications: staple (positions not given here); not fully specified (bridges); printed as 5hexenyl-PL3-Asp-AllylGly-B5-Asp-3COOHF-Ala-Ala-Phe-Leu-PyrS2-2F3MeF-BztA-Gln-NH2; also: staple C=C reduced to CH2-CH2, staple partners not given here
B3: I-2188 (peptide)
peptide: Ac-[αAllylPro]D[tBuAla][B5(4)]D[Phe(3-COOH)][Me2Asn]AFL[PyrS2(4)][3Thi][Bta]A-NH2
modifications: staple 1-4, 4-11; reading uncertain; also: printed as Ac-PL3-Asp-Npg-B5-Asp-3COOHF-Me2Asn-Ala-Phe-Leu-PyrS2-3Thi-BztA-Ala-NH2
B4: I-2185 (peptide)
peptide: Ac-[αAllylPro]D[tBuAla][B5(4)]D[TfeGA]AAFL[PyrS2″][3Thi][Bta]Q-NH2
modifications: staple 1-4, 4-11; not fully specified (residue 9); also: later-eluting HPLC isomer peak
B5: I-2190 (peptide)
peptide: Ac-[αAllylPro]D[tBuAla][B5(4)]D[Phe(3-COOH)]SAFL[PyrS2(4)][3Thi][Bta]V-NH2
modifications: staple 1-4, 4-11; reading uncertain; also: printed as Ac-PL3-Asp-Npg-B5-Asp-3COOHF-Ser-Ala-Phe-Leu-PyrS2-3Thi-BztA-Val-NH2
B6: I-2183 (peptide)
peptide: Ac-[αAllylPro]D[tBuAla][B5(4)]DDAAFL[PyrS2″][3Thi][34ClF]Q-NH2
modifications: staple 1-4, 4-11; reading uncertain; also: printed as Ac-PL3-Asp-Npg-B5-Asp-Asp-Ala-Ala-Phe-Leu-PyrS2-3Thi-34C1F-Gln-NH2

target: T1, B-cat-Halo (beta-catenin HaloTag …); experiment: cell-based or functional assay

| NanoBRET Abs IC50 (uM); Bcat-Halo / TCF4-Luc in HEK293 cells [µM] | Binder |
| --- | --- |
| > 20 | Ac-[αAllylPro]D[tBuAla][B6]D[Phe(3-COOH)]AAFL[PyrS2][Phe(2-CF3)][Bta]Q-NH2 (staple 1-4, 4-11) [I-2513] |
| 7.8 | Ac-[αAllylPro]D[tBuAla][B6]D[Phe(3-COOH)]QAFL[PyrS1][Phe(2-CF3)][Bta]A-NH2 (staple 1-4, 4-11) [I-2510] |
| > 20 | Ac-[αAllylPro]D[tBuAla][B6]D[Phe(3-COOH)]AAFL[PyrS][Phe(2-CF3)][Bta]Q-NH2 (staple 1-4, 4-11) [I-2518] |
| > 20 | B1 |
| 33.2 | B2 |
| > 20 | Ac-[αAllylPro]D[tBuAla][B6]D[Phe(3-COOH)]QAFL[PyrS2][Phe(2-CF3)][Bta]A-NH2 (staple 1-4, 4-11) [I-2515] |
| > 20 | Ac-[αAllylPro]N[Cha][B5(4)]DQK(Morpholinoacetyl)AFL[PyrS2]F[Bta][MorphAsn]-NH2 (staple 1-4, 4-11) [I-2527] |
| 4.5 | Ac-[αAllylPro]D[tBuAla][B5(4)]D[Phe(3-COOH)]AAFL[PyrS2″][Phe(2-CF3)][Bta][Me2Gln]-NH2 (staple 1-4, 4-11) [I-2532] |
| 30 | Ac-[αAllylPro]D[tBuAla][B6]D[Phe(3-COOH)]QAFL[PyrS2][Phe(2-CF3)][Bta]A-NH2 (staple 1-4, 4-11) [I-2517] |
| > 20 | Ac-[αAllylPro]N[Cha][B5(4)]DQK(Ac)AFL[PyrS2]F[Bta][MorphAsn]-NH2 (staple 1-4, 4-11) [I-2522] |
| > 20 | Ac-[αAllylPro]N[Cha][B5(4)]DQK(mPEG4)AFL[PyrS2]F[Bta][MorphAsn]-NH2 (staple 1-4, 4-11) [I-2526] |

target: T2, B-cat-Halo (beta-catenin HaloTag fusion …); experiment: cell-based or functional assay

| NanoBRET Abs IC50 [µM] | Binder |
| --- | --- |
| 19.6 | Ac-[αAllylPro]D[tBuAla][B5(4)]D[Phe(3-COOH)][Aib]AF[Nle][PyrS2″][3Thi][Bta][(4F3CPip)GlnR]-NH2 (staple 1-4, 4-11) [I-2557] |
| 3.3 | Ac-[αAllylPro]D[tBuAla][B5(4)]D[Phe(3-COOH)][Aib]AF[Nle][PyrS2″][3Thi][Bta][(bismethoxyethylamine)GlnR]-NH2 (staple 1-4, 4-11) [I-2554] |
| 7 | Ac-[αAllylPro]D[tBuAla][B5(4)]D[Phe(3-COOH)][Aib]AF[Nle][PyrS2″][3Thi][Bta][(AcPpz)GlnR]-NH2 (staple 1-4, 4-11) [I-2556] |
| 22.1 | Ac-[αAllylPro]D[tBuAla][B5(4)]D[Phe(3-COOH)][Aib]AF[Nle][PyrS2″][3Thi][Bta][(4Pippip)GlnR]-NH2 (staple 1-4, 4-11) [I-2555] |
| 8.2 | Ac-[αAllylPro]D[tBuAla][B5(4)]D[Phe(3-COOH)][Aib]AF[Nle][PyrS2″][3Thi][Bta][(Morph)GlnR″]-NH2 (staple 1-4, 4-11) [I-2553] |

target: T3, B-cat-Halo (beta-catenin HaloTag …); experiment: cell-based or functional assay

| NanoBRET Abs IC50 [µM] | Binder |
| --- | --- |
| 39.9 | Ac-[αAllylPro]D[tBuAla][B5(4)]D[Phe(3-COOH)][Nle]AFL[PyrS2″][3Thi][Bta][tBuAla]-NH2 (staple 1-4, 4-11) [I-2193] |
| 10.8 | Ac-[αAllylPro]D[tBuAla][B5(4)]D[TfeGA″]AAFL[PyrS2(4)][3Thi][Bta][BnBoroleK]-NH2 (staple 1-4, 4-11; reading uncertain; also: later-eluting HPLC isomer peak) [I-2187] |
| 7.6 | B3 |
| 8.8 | Ac-[αAllylPro]D[tBuAla][B5(4)]D[Phe(3-COOH)][Aib]AFL[PyrS2″][3Thi][Bta][tBuAla]-NH2 (staple 1-4, 4-11) [I-2194] |
| 16.1 | Ac-[αAllylPro]D[tBuAla][B5(4)]D[Phe(3-COOH)]QAFL[PyrS2″][3Thi][Bta][tBuAla]-NH2 (staple 1-4, 4-11) [I-2192] |
| 6.1 | B4 |
| 29.5 | Ac-[αAllylPro]D[tBuAla][B5(4)]D[Phe(3-COOH)][Me2Asn]AFL[PyrS2″][3Thi][Bta]V-NH2 (staple 1-4, 4-11) [I-2191] |
| 39.3 | Ac-[αAllylPro]D[tBuAla][B5(4)]D[Phe(3-COOH)][Me2Asn]AFL[PyrS2″][3Thi][Bta][tBuAla]-NH2 (staple 1-4, 4-11) [I-2196] |
| 33.4 | B5 |
| 21 | Ac-[αAllylPro]D[tBuAla][B5(4)]D[Phe(3-COOH)]SAFL[PyrS2″][3Thi][Bta][tBuAla]-NH2 (staple 1-4, 4-11) [I-2195] |
| 5 | B6 |
| 33.4 | Ac-[αAllylPro]D[tBuAla][B5(4)]D[Phe(3-COOH)][Nle]AFL[PyrS2″][3Thi][Bta]V-NH2 (staple 1-4, 4-11) [I-2189] |
